{"source": "paper PMC3115021", "about": "“Dynamics of Cdk1 Substrate Specificity during the Cell Cycle” (Molecular Cell, 2011)", "molecules": {"B1": {"name": "SWI6: cell cycle-related transcription factor, tested as Cdk1 substrate (protein, UniProt P09959 1-803, looked up)", "Regulatory protein SWI6": "MALEEVVRYLGPHNEIPLTLTRDSETGHFLLKHFLPILQQYHDTGNINETNPDSFPTDEERNKLLAHYGIAVNTDDRGELWIELEKCLQLLNMLNLFGLFQDAFEFEEPETDQDEEDPSHSKLPENKTKSENSKDNISSKRINNLQDMSLDSDAHRELGSPLKKLKIDTSVIDAESDSTPNTARGKPNDDINKGPSGDNENNGTDDNDRTAGPIITFTHDLTSDFLSSPLKIMKALPSPVVNDNEQKMKLEAFLQRLLFPEIQEMPTSLNNDSSNRNSEGGSSNQQQQHVSFDSLLQEVNDAFPNTQLNLNIPVDEHGNTPLHWLTSIANLELVKHLVKHGSNRLYGDNMGESCLVKAVKSVNNYDSGTFEALLDYLYPCLILEDSMNRTILHHIIITSGMTGCSAAAKYYLDILMGWIVKKQNRPIQSGTNEKESKPNDKNGERKDSILENLDLKWIIANMLNAQDSNGDTCLNIAARLGNISIVDALLDYGADPFIANKSGLRPVDFGAGTSKLQNTNGGDENSKMVSKGDYDGQKNGKAKKIRSQLLKNPPETTSLINDVQNLLNSISKDYENETVQYNEKLEKLHKELNEQREELANSREQLANVKQLKDEYSLMQEQLTNLKAGIEEEEESFREESKKLGIIADESSGIDWDSSEYDADEPFKVEFLSDFLEDKLQKNYEGDISKLLEAESKEQIMEQIRNQLPAEKIQSMLPPTVLLKARINAYKRNDKHLTNVLDTISTKQSELENKFRRVLSLCLKIDENKVDNMLDGLLQAISSEDPQDIDTDEMQDFLKKHAS"}, "B2": {"name": "SWI5: purified yeast protein tested as Cdk1 substrate (protein, UniProt P08153 1-709, looked up)", "Transcriptional factor SWI5": "MDTSNSWFDASKVQSLNFDLQTNSYYSNARGSDPSSYAIEGEYKTLATDDLGNILNLNYGETNEVIMNEINDLNLPLGPLSDEKSVKVSTFSELIGNDWQSMNFDLENNSREVTLNATSLLNENRLNQDSGMTVYQKTMSDKPHDEKKISMADNLLSTINKSEINKGFDRNLGELLLQQQQELREQLRAQQEANKKLELELKQTQYKQQQLQATLENSDGPQFLSPKRKISPASENVEDVYANSLSPMISPPMSNTSFTGSPSRRNNRQKYCLQRKNSSGTVGPLCFQELNEGFNDSLISPKKIRSNPNENLSSKTKFITPFTPKSRVSSATSNSANITPNNLRLDFKINVEDQESEYSEKPLGLGIELLGKPGPSPTKSVSLKSASVDIMPTIPGSVNNTPSVNKVSLSSSYIDQYTPRGKQLHFSSISENALGINAATPHLKPPSQQARHREGVFNDLDPNVLTKNTDNEGDDNEENEPESRFVISETPSPVLKSQSKYEGRSPQFGTHIKEINTYTTNSPSKITRKLTTLPRGSIDKYVKEMPDKTFECLFPGCTKTFKRRYNIRSHIQTHLEDRPYSCDHPGCDKAFVRNHDLIRHKKSHQEKAYACPCGKKFNREDALVVHRSRMICSGGKKYENVVIKRSPRKRGRPRKDGTSSVSSSPIKENINKDHNGQLMFKLEDQLRRERSYDGNGTGIMVSPMKTNQR"}, "B3": {"name": "WHI5: repressor of the G1-specific SBF transcription factor, tested as Cdk1 substrate (protein, UniProt Q12416 1-295, looked up)", "G1-specific transcriptional …": "MSLRTPKRSRTSDEQEQEQEQEQVQNPDTHVNNEHQQRPGPTTLLSTPVRLKNGFGTPSPPSPPGITKSITKSRRRPSTTSLQGIFMSPVNKRRVGITAHGRVYDHNDDGHESESEDDENEEENENQKKYDGHVSMPLLPPTTPKSRRSEVFLSPSPRLRSPPTAARRSTGERPIREISHTLRTRLNYALVKLQNGWTDKTLPELETELAPAVQTPPRRYHNRFPDSADAGTSAHTAFLQALGGHPPREEATAVETLMLLSSPTKKQQHRPVPATSAGEPTDETEPESDTEVETS"}, "B4": {"name": "XBP1: purified yeast protein tested as Cdk1 substrate (protein, UniProt P40489 1-647, looked up)", "Transcriptional repressor XBP1": "MKYPAFSINSDTVHLTDNPLDDYQRLYLVSVLDRDSPPASFSAGLNIRKVNYKSSIAAQFTHPNFIISARDAGNGEEAAAQNVLNCFEYQFPNLQTIQSLVHEQTLLSQLASSATPHSALHLHDKNILMGKIILPSRSNKTPVSASPTKQEKKALSTASRENATSSLTKNQQFKLTKMDHNLINDKLINPNNCVIWSHDSGYVFMTGIWRLYQDVMKGLINLPRGDSVSTSQQQFFCKAEFEKILSFCFYNHSSFTSEESSSVLLSSSTSSPPKRRTSTGSTFLDANASSSSTSSTQANNYIDFHWNNIKPELRDLICQSYKDFLINELGPDQIDLPNLNPANFTKRIRGGYIKIQGTWLPMEISRLLCLRFCFPIRYFLVPIFGPDFPKDCESWYLAHQNVTFASSTTGAGAATAATAAANTSTNFTSTAVARPRQKPRPRPRQRSTSMSHSKAQKLVIEDALPSFDSFVENLGLSSNDKNFIKKNSKRQKSSTYTSQTSSPIGPRDPTVQILSNLASFYNTHGHRYSYPGNIYIPQQRYSLPPPNQLSSPQRQLNYTYDHIHPVPSQYQSPRHYNVPSSPIAPAPPTFPQPYGDDHYHFLKYASEVYKQQNQRPAHNTNTNMDTSFSPRANNSLNNFKFKTNSKQ"}, "B5": {"name": "TOS4: putative transcription factor, tested as Cdk1 substrate (protein, UniProt Q06266 1-489, looked up)", "Protein TOS4": "MSSQFPSSPYRTVDPYSPPNYKQQPNCPSSNYEKAGKTASESIGNFGKGDYPTPFPSSSIGRVSSPVRSNKVDAIPSSPAFPGQLAETSPKFSSKLSSPSRHTRVINAELDPSKISTITVGRNSSQCDVALCKNKFISRVHASITYLPQTNEVKIHCFSMNGLIVTYRKQFDCYQLKDTMNNNNRAYRLVPRFSNEKCVKEIQDEGGFINFTLEEGDTVYMTYYKGIMLDFRQVLLRISLKEKNSSSEPLRFEKKAEFESESETKHMGSIRKHPLIFTDTSMDRPKKILKDSNKISIGSDSGVAERMLNHFLNSKSSPLSSVSSVDHEEQTLRQDSLSSDKNPMTMKKPKLNKRVLPSKPKKSVKENLDELSRRNIDVMHLQHILTNHLAFANVQQTPLFQLQQVNSQISELSRDELRSILSDAKCVGVIYRHGKDAAGKPLDEEYFYDLENDDDYERRNLVSSLKGGRTGLRSCRRTHKQYFWKKPAK"}, "B6": {"name": "YHP1: purified yeast protein tested as Cdk1 substrate (protein, UniProt Q04116 1-353, looked up)", "Homeobox protein YHP1": "MESRNTVLPSLPNIITGTSNSPFQLHTLPNTNFPSDDQGDIRLPPLAASAHIVRPVVNIYKSPCDEERPKRKSPQAVDFLSQRVTTSMTPLSKPKKLSSHSPFTPTVRVCSKEQPPQSMHSYKKVNILTPLSAAKAVLTPTTRKEKKRSFAFITHSQETFPKKEPKIDNARLARRKRRRTSSYELGILQTAFDECPTPNKAKRIELSEQCNMSEKSVQIWFQNKRQAAKKHKNSGNTSHCKVHSNDSMSMISYSDAALEITSTPTSTKEAITAELLKTSPANTSSIFEDHHITPCKPGGQLKFHRKSVLVKRTLSNTGHSEIIKSPKGKENRLKFNAYERKPLGEVDLNSFKN"}}}
{"target": "T1, Clb2-Cdk1 (Saccharomyces cerevisiae, UniProt P00546+P24869)", "T1 construct": "We purified the four cyclin-Cdk1 complexes from yeast; made in house; host or cells: S. cerevisiae strain DOM0077 (gal-CLB2-TAP, sic1 deleted); Cks1 from bacteria", "T1 sequence (P00546 2-298 limits assumed)": "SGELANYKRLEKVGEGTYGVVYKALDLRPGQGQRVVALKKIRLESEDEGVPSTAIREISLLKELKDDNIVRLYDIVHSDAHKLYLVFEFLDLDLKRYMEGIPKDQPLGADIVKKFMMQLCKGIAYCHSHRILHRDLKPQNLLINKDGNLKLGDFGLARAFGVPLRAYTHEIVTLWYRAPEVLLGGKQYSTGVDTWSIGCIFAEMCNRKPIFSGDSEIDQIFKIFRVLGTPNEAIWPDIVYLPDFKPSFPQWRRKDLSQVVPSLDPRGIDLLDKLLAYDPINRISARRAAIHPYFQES", "T1 sequence (P24869 2-491 partner limits assumed)": "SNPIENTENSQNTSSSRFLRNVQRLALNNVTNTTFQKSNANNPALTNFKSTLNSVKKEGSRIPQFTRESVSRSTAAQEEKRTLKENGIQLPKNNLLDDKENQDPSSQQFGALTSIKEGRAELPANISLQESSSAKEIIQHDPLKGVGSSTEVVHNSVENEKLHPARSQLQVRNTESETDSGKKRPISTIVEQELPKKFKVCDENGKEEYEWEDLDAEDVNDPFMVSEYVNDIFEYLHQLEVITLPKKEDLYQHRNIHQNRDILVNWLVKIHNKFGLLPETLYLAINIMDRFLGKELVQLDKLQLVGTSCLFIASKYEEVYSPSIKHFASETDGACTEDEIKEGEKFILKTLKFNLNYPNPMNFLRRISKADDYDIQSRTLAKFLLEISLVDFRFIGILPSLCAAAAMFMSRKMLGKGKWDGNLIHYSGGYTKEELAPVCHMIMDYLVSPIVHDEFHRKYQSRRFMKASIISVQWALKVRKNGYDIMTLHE", "T1 sequence (P20486 whole entry partner)": "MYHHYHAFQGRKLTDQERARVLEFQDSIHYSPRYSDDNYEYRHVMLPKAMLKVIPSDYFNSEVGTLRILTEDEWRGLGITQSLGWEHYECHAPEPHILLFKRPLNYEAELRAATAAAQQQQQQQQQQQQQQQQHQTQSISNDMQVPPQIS", "assay": "Quantitative phosphorylation assay of T33-Sic1ΔC constructs and recombinant substrates", "type": "biochemical", "conditions": "Table S2; purified protein substrate; relative values, not divided by [S]", "units": {"kcat/KM, Clb2": "relative units"}}
{"molecule": "B1", "kcat/KM, Clb2": 0.412}
{"molecule": "B2", "kcat/KM, Clb2": 2.961}
{"molecule": "B3", "kcat/KM, Clb2": 0.046}
{"molecule": "B4", "kcat/KM, Clb2": 0.103}
{"molecule": "B5", "kcat/KM, Clb2": 2.373}
{"molecule": "B6", "kcat/KM, Clb2": 0.385}
{"target": "T2, Clb3-Cdk1 (Saccharomyces cerevisiae, UniProt P00546+P24870)", "T2 construct": "We purified the four cyclin-Cdk1 complexes from yeast; made in house; host or cells: S. cerevisiae strain DOM0957 (gal-CLB3-TAP, sic1 deleted); Cks1 from bacteria", "T2 sequence (P00546 2-298 limits assumed)": "as the sequence (P00546 2-298 limits assumed) above", "T2 sequence (P24870 whole entry partner)": "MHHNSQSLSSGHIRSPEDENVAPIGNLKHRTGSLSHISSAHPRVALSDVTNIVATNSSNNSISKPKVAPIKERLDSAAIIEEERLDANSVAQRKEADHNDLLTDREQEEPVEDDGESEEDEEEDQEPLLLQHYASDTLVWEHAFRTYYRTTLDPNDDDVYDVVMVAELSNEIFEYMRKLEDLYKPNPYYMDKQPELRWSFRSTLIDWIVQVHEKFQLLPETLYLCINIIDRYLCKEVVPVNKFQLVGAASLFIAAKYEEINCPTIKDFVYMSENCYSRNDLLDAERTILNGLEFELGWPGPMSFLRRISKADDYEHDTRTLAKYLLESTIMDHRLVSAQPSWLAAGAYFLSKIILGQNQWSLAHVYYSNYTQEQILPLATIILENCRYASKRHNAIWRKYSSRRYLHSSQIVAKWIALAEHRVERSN", "T2 sequence (P20486 whole entry partner)": "as the sequence (P20486 whole entry partner) above", "assay": "Quantitative phosphorylation assay of T33-Sic1ΔC constructs and recombinant substrates", "type": "biochemical", "conditions": "Table S2; purified protein substrate; relative values, not divided by [S]", "units": {"kcat/KM, Clb3": "relative units"}}
{"molecule": "B1", "kcat/KM, Clb3": 0.105}
{"molecule": "B2", "kcat/KM, Clb3": 1.686}
{"molecule": "B3", "kcat/KM, Clb3": 0.033}
{"molecule": "B4", "kcat/KM, Clb3": 0.065}
{"molecule": "B5", "kcat/KM, Clb3": 8.484}
{"molecule": "B6", "kcat/KM, Clb3": 0.066}
{"target": "T3, Clb5-Cdk1 (Saccharomyces cerevisiae, UniProt P00546+P30283)", "T3 construct": "We purified the four cyclin-Cdk1 complexes from yeast; made in house; host or cells: S. cerevisiae strain DOM0076 (gal-CLB5-TAP, sic1 deleted); Cks1 from bacteria", "T3 sequence (P00546 2-298 limits assumed)": "as the sequence (P00546 2-298 limits assumed) above", "T3 sequence (P30283 whole entry partner)": "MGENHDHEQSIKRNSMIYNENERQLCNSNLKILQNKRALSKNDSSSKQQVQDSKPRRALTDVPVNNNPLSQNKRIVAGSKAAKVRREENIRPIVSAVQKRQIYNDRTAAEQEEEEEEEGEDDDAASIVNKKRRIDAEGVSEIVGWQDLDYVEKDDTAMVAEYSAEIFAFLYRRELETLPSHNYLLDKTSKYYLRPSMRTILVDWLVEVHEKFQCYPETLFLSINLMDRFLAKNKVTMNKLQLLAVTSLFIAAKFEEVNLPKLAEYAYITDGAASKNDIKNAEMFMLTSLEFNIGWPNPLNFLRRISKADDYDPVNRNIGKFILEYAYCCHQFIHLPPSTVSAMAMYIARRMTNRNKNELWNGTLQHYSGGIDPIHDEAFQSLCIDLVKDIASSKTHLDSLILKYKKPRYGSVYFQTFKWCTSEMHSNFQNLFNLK", "T3 sequence (P20486 whole entry partner)": "as the sequence (P20486 whole entry partner) above", "assay": "Quantitative phosphorylation assay of T33-Sic1ΔC constructs and recombinant substrates", "type": "biochemical", "conditions": "Table S2; purified protein substrate; relative values, not divided by [S]", "units": {"kcat/KM, Clb5": "relative units"}}
{"molecule": "B1", "kcat/KM, Clb5": 0.118}
{"molecule": "B2", "kcat/KM, Clb5": 0.475}
{"molecule": "B3", "kcat/KM, Clb5": 0.016}
{"molecule": "B4", "kcat/KM, Clb5": 0.020}
{"molecule": "B5", "kcat/KM, Clb5": 0.502}
{"molecule": "B6", "kcat/KM, Clb5": 0.020}
{"target": "T4, Cln2-Cdk1 (Saccharomyces cerevisiae, UniProt P00546+P20438)", "T4 construct": "We purified the four cyclin-Cdk1 complexes from yeast; made in house; host or cells: S. cerevisiae strain DMY305 (galactose-induced); Cks1 from bacteria", "T4 sequence (P00546 2-298 limits assumed)": "as the sequence (P00546 2-298 limits assumed) above", "T4 sequence (P20438 whole entry partner)": "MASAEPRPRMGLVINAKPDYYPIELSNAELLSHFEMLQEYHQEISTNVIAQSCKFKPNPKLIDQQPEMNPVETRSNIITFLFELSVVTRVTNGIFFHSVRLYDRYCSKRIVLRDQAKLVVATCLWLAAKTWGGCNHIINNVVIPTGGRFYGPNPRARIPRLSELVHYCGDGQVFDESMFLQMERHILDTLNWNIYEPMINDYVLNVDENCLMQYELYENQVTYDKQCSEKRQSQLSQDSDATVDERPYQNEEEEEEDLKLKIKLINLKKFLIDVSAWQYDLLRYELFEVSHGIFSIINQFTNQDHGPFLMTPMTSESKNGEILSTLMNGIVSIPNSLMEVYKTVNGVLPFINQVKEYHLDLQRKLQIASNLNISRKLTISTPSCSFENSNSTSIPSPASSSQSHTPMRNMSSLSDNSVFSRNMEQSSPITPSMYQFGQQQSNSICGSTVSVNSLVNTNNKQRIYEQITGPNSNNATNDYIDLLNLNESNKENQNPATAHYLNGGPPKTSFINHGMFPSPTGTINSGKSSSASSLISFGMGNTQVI", "T4 sequence (P20486 whole entry partner)": "as the sequence (P20486 whole entry partner) above", "assay": "Quantitative phosphorylation assay of T33-Sic1ΔC constructs and recombinant substrates", "type": "biochemical", "conditions": "Table S2; purified protein substrate; relative values, not divided by [S]", "units": {"kcat/KM, Cln2": "relative units"}}
{"molecule": "B1", "kcat/KM, Cln2": 0.004}
{"molecule": "B2", "kcat/KM, Cln2": 0.178}
{"molecule": "B3", "kcat/KM, Cln2": 0.283}
{"molecule": "B4", "kcat/KM, Cln2": 0.200}
{"molecule": "B5", "kcat/KM, Cln2": 0.708}
{"molecule": "B6", "kcat/KM, Cln2": 0.524}
{"target": "T5, Clb2hpm-Cdk1 (Saccharomyces cerevisiae, UniProt P00546)", "T5 construct": "made in house; host or cells: S. cerevisiae strain DOM0964 (gal-CLB2hpm-TAP, sic1 deleted); Cks1 from bacteria", "T5 sequence (P00546 2-298 limits assumed)": "as the sequence (P00546 2-298 limits assumed) above", "assay": "Quantitative phosphorylation assay of T33-Sic1ΔC constructs and recombinant substrates", "type": "biochemical", "conditions": "Table S2; purified protein substrate; relative values, not divided by [S]", "method_in_brief": "(§1)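 Yeast cyclin-Cdk1 complexes (1–10 nM, TAP-purified) phosphorylated 6His-T33-Sic1ΔC (other S/T-P sites mutated to Ala-Ala) or recombinant substrates at 0.5–2 μM, below KM, with 32P-γ-ATP. Initial velocities (≤10% turnover) from two or more time points, SDS-PAGE stopped; relative kcat/KM from v0 ratios.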", "units": {"kcat/KM, Clb2hpm": "relative units"}}
{"molecule": "B1", "kcat/KM, Clb2hpm": 0.481}
{"molecule": "B2", "kcat/KM, Clb2hpm": 1.387}
{"molecule": "B3", "kcat/KM, Clb2hpm": 0.027}
{"molecule": "B4", "kcat/KM, Clb2hpm": 0.084}
{"molecule": "B5", "kcat/KM, Clb2hpm": 2.136}
{"molecule": "B6", "kcat/KM, Clb2hpm": 0.046}
{"target": "T6, Clb3hpm-Cdk1 (Saccharomyces cerevisiae, UniProt P00546+P24870)", "T6 construct": "made in house; host or cells: S. cerevisiae strain MK0168 (gal-CLB3hpm-TAP, sic1 deleted); Cks1 from bacteria", "assay": "Quantitative phosphorylation assay of T33-Sic1ΔC constructs and recombinant substrates", "type": "biochemical", "conditions": "Table S2; purified protein substrate; relative values, not divided by [S]", "method_in_brief": "as §1", "units": {"kcat/KM, Clb3hpm": "relative units"}}
{"molecule": "B1", "kcat/KM, Clb3hpm": 0.075}
{"molecule": "B2", "kcat/KM, Clb3hpm": 0.207}
{"molecule": "B3", "kcat/KM, Clb3hpm": 0.006}
{"molecule": "B4", "kcat/KM, Clb3hpm": 0.013}
{"molecule": "B5", "kcat/KM, Clb3hpm": 2.397}
{"molecule": "B6", "kcat/KM, Clb3hpm": 0.009}
{"target": "T7, Clb5hpm-Cdk1 (Saccharomyces cerevisiae, UniProt P00546)", "T7 construct": "made in house; host or cells: S. cerevisiae strain DOM0963 (gal-CLB5hpm-TAP, sic1 deleted); Cks1 from bacteria", "T7 sequence (P00546 2-298 limits assumed)": "as above", "assay": "Quantitative phosphorylation assay of T33-Sic1ΔC constructs and recombinant substrates", "type": "biochemical", "conditions": "Table S2; purified protein substrate; relative values, not divided by [S]", "method_in_brief": "as §1", "units": {"kcat/KM, Clb5hpm": "relative units"}}
{"molecule": "B1", "kcat/KM, Clb5hpm": 0.058}
{"molecule": "B2", "kcat/KM, Clb5hpm": 0.172}
{"molecule": "B3", "kcat/KM, Clb5hpm": 0.001}
{"molecule": "B4", "kcat/KM, Clb5hpm": 0.007}
{"molecule": "B5", "kcat/KM, Clb5hpm": 0.593}
{"molecule": "B6", "kcat/KM, Clb5hpm": 0.002}
